The values that follow come from paper PMC9700324, “Selection-free endogenous tagging of cell lines by bicistronic co-expression of the surface antigen NGFR” (MethodsX, 2022).

The target in assay [1] is T1, nLAP-tagged WDR59 (WD Repeat Domain 59), endogenously tagged (human (endogenous in HEK293T), UniProt Q6PJI9 1-974).
T1 construct: WDR59 (WD Repeat Domain 59), subunit of GATOR2, human; NGFRETD is split off at the P2A site and is not part of this chain; The tag was inserted in the 5'UTR (donor NGFR "-2"); they are printed only as DNA; also called WDR59-GFP; nLAP-WDR59; source: endogenously tagged allele in HEK (Lenti-X 293T) spCas9+ cells, WDR59-NGFRETD-nLAP clone D5, in lysate; not shown: EGFP, N-terminal, kept
T1 sequence (looked up): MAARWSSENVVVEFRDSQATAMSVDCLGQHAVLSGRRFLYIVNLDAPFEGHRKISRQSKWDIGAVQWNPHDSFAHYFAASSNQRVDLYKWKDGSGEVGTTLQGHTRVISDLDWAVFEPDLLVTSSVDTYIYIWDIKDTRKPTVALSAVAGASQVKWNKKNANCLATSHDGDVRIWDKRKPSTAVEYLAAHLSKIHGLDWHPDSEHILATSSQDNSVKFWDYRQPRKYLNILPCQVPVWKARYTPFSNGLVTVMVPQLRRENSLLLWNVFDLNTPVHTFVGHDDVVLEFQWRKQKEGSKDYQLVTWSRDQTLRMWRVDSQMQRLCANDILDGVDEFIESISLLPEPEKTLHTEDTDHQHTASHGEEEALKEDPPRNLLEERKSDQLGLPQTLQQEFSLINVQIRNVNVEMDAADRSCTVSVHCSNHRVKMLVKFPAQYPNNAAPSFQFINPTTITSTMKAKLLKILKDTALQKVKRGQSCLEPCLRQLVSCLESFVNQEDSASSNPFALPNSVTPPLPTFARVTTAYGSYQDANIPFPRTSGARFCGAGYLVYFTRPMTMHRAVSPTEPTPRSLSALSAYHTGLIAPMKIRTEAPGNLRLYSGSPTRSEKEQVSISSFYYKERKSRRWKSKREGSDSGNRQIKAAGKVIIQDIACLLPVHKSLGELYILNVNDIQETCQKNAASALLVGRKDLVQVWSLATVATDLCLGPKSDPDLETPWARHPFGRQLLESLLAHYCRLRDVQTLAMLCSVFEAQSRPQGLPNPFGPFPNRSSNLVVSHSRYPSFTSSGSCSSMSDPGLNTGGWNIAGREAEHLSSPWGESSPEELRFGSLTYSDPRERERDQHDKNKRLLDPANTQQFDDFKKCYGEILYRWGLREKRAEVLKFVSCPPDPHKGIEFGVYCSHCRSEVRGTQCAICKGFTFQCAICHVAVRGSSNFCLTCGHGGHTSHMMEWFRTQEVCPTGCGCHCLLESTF
The assay can be described thus: co-IP; nLAP-tagged WDR59 precipitated from 1,000-3,000 µg lysate protein with GFP-Trap magnetic agarose beads (GFP-specific nanobodies) overnight at 4°C; CoIP buffer (10 mM Tris-HCl pH 8, 150 mM NaCl, 5 mM EDTA, 0.5% Triton X-100, 60 mM octyl-β-D-glucopyranoside); 5 washes; partners detected by Western blot; cells untreated, amino acid-starved 16 h with or without 60 min stimulation with all amino acids or leucine, …. The note with it: partners not purified. (Immunoblotting shows a protein as a band on a membrane.)

For assay [2], the target named is T2, nLAP-tagged WDR59 (WD Repeat Domain 59), endogenously tagged (human (endogenous in HEK293T)), Q6PJI9.
T2 chain: T1 sequence (looked up)
Described as above. The settings on record: remark: other sources report otherwise.

B1: Sestrin-2 (SESN2) (natural protein, human (endogenous in HEK293T), UniProt P58004 1-480, looked up)
chain: MIVADSECRAELKDYLRFAPGGVGDSGPGEEQRESRARRGPRGPSAFIPVEEVLREGAESLEQHLGLEALMSSGRVDNLAVVMGLHPDYFTSFWRLHYLLLHTDGPLASSWRHYIAIMAAARHQCSYLVGSHMAEFLQTGGDPEWLLGLHRAPEKLRKLSEINKLLAHRPWLITKEHIQALLKTGEHTWSLAELIQALVLLTHCHSLSSFVFGCGILPEGDADGSPAPQAPTPPSEQSSPPSRDPLNNSGGFESARDVEALMERMQQLQESLLRDEGTSQEEMESRFELEKSESLLVTPSADILEPSPHPDMLCFVEDPTFGYEDFTRRGAQAPPTFRAQDYTWEDHGYSLIQRLYPEGGQLLDEKFQAAYSLTYNTIAMHSGVDTSVLRRAIWNYIHCVFGIRYDDYDYGEVNQLLERNLKVYIKTVACYPEKTTRRMYNLFWRHFRHSEKVHVNLLLLEARMQAALLYALRAITRYMT
notes: Sestrin-2 (SESN2), leucine-sensing protein, human, endogenous; source: endogenous, HEK (Lenti-X 293T) spCas9+ WDR59-NGFRETD-nLAP clone D5 lysate
B1: in assay [1], the “co-IP signal after leucine restimulation, fold of the leucine-starved sample” value is around 2 fold and the “co-IP signal after restimulation with all amino acids, percent of the amino acid-starved sample (normalised to WDR59-GFP)” value amounted to 82%.

B2: WDR24 (WD Repeat Domain 24) (natural protein, human (endogenous in HEK293T), UniProt Q96S15 1-790, looked up)
chain: MEKMSRVTTALGGSVLTGRTMHCHLDAPANAISVCRDAAQVVVAGRSIFKIYAIEEEQFVEKLNLRVGRKPSLNLSCADVVWHQMDENLLATAATNGVVVTWNLGRPSRNKQDQLFTEHKRTVNKVCFHPTEAHVLLSGSQDGFMKCFDLRRKDSVSTFSGQSESVRDVQFSIRDYFTFASTFENGNVQLWDIRRPDRCERMFTAHNGPVFCCDWHPEDRGWLATGGRDKMVKVWDMTTHRAKEMHCVQTIASVARVKWRPECRHHLATCSMMVDHNIYVWDVRRPFVPAAMFEEHRDVTTGIAWRHPHDPSFLLSGSKDSSLCQHLFRDASQPVERANPEGLCYGLFGDLAFAAKESLVAAESGRKPYTGDRRHPIFFKRKLDPAEPFAGLASSALSVFETEPGGGGMRWFVDTAERYALAGRPLAELCDHNAKVARELGRNQVAQTWTMLRIIYCSPGLVPTANLNHSVGKGGSCGLPLMNSFNLKDMAPGLGSETRLDRSKGDARSDTVLLDSSATLITNEDNEETEGSDVPADYLLGDVEGEEDELYLLDPEHAHPEDPECVLPQEAFPLRHEIVDTPPGPEHLQDKADSPHVSGSEADVASLAPVDSSFSLLSVSHALYDSRLPPDFFGVLVRDMLHFYAEQGDVQMAVSVLIVLGERVRKDIDEQTQEHWYTSYIDLLQRFRLWNVSNEVVKLSTSRAVSCLNQASTTLHVNCSHCKRPMSSRGWVCDRCHRCASMCAVCHHVVKGLFVWCQGCSHGGHLQHIMKWLEGSSHCPAGCGHLCEYS
notes: WDR24 (WD Repeat Domain 24), subunit of GATOR2, human, endogenous; also called GATOR2 subunit WDR24; source: endogenous, HEK (Lenti-X 293T) spCas9+ WDR59-NGFRETD-nLAP clone D5 lysate
As for B2, in assay [1], the “co-IP signal after leucine restimulation, fold of the leucine-starved sample” value is around 2 fold and the “co-IP signal after restimulation with all amino acids, percent of the amino acid-starved sample (normalised to WDR59-GFP)” value is 71%.

B3: MIOS (Meiosis Regulator For Oocyte Development) (natural protein, human (endogenous in HEK293T), UniProt Q9NXC5 1-875, looked up)
chain: MSGTKPDILWAPHHVDRFVVCDSELSLYHVESTVNSELKAGSLRLSEDSAATLLSINSDTPYMKCVAWYLNYDPECLLAVGQANGRVVLTSLGQDHNSKFKDLIGKEFVPKHARQCNTLAWNPLDSNWLAAGLDKHRADFSVLIWDICSKYTPDIVPMEKVKLSAGETETTLLVTKPLYELGQNDACLSLCWLPRDQKLLLAGMHRNLAIFDLRNTSQKMFVNTKAVQGVTVDPYFHDRVASFYEGQVAIWDLRKFEKPVLTLTEQPKPLTKVAWCPTRTGLLATLTRDSNIIRLYDMQHTPTPIGDETEPTIIERSVQPCDNYIASFAWHPTSQNRMIVVTPNRTMSDFTVFERISLAWSPITSLMWACGRHLYECTEEENDNSLEKDIATKMRLRALSRYGLDTEQVWRNHILAGNEDPQLKSLWYTLHFMKQYTEDMDQKSPGNKGSLVYAGIKSIVKSSLGMVESSRHNWSGLDKQSDIQNLNEERILALQLCGWIKKGTDVDVGPFLNSLVQEGEWERAAAVALFNLDIRRAIQILNEGASSEKGDLNLNVVAMALSGYTDEKNSLWREMCSTLRLQLNNPYLCVMFAFLTSETGSYDGVLYENKVAVRDRVAFACKFLSDTQLNRYIEKLTNEMKEAGNLEGILLTGLTKDGVDLMESYVDRTGDVQTASYCMLQGSPLDVLKDERVQYWIENYRNLLDAWRFWHKRAEFDIHRSKLDPSSKPLAQVFVSCNFCGKSISYSCSAVPHQGRGFSQYGVSGSPTKSKVTSCPGCRKPLPRCALCLINMGTPVSSCPGGTKSDEKVDLSKDKKLAQFNNWFTWCHNCRHGGHAGHMLSWFRDHAECPVSACTCKCMQLDTTGNLVPAETVQP
notes: MIOS (Meiosis Regulator For Oocyte Development), subunit of GATOR2, human, endogenous; also called GATOR2 subunit MIOS; source: endogenous, HEK (Lenti-X 293T) spCas9+ WDR59-NGFRETD-nLAP clone D5 lysate
In the case of B3, in assay [1], the “co-IP signal after leucine restimulation, fold of the leucine-starved sample” value was around 2 fold and the “co-IP signal after restimulation with all amino acids, percent of the amino acid-starved sample (normalised to WDR59-GFP)” value amounted to 85%.

B4: NPRL3 (Nitrogen Permease Regulator 3-Like Protein), Q12980 1-569 (natural protein)
chain: MRDNTSPISVILVSSGSRGNKLLFRYPFQRSQEHPASQTSKPRSRYAASNTGDHADEQDGDSRFSDVILATILATKSEMCGQKFELKIDNVRFVGHPTLLQHALGQISKTDPSPKREAPTMILFNVVFALRANADPSVINCLHNLSRRIATVLQHEERRCQYLTREAKLILALQDEVSAMADGNEGPQSPFHHILPKCKLARDLKEAYDSLCTSGVVRLHINSWLEVSFCLPHKIHYAASSLIPPEAIERSLKAIRPYHALLLLSDEKSLLGELPIDCSPALVRVIKTTSAVKNLQQLAQDADLALLQVFQLAAHLVYWGKAIIIYPLCENNVYMLSPNASVCLYSPLAEQFSHQFPSHDLPSVLAKFSLPVSLSEFRNPLAPAVQETQLIQMVVWMLQRRLLIQLHTYVCLMASPSEEEPRPREDDVPFTARVGGRSLSTPNALSFGSPTSSDDMTLTSPSMDNSSAELLPSGDSPLNQRMTENLLASLSEHERAAILSVPAAQNPEDLRMFARLLHYFRGRHHLEEIMYNENTRRSQLLMLFDKFRSVLVVTTHEDPVIAVFQALLP
In assay [2], B4 registered a co-IP signal after leucine restimulation, fold of the leucine-starved sample of 2 fold; a co-IP signal after restimulation with all amino acids, fold of the amino acid-starved sample (normalised to WDR59-GFP) of 1.2 fold; a co-IP signal after restimulation with leucine alone, fold of the amino acid-starved sample (normalised to WDR59-GFP) of 1.89 fold.
